In the DeepSol protein solubility set:

experiment: soluble on expression in E. coli; label from the status in PepcDB or PDB records

Row | Sequence | soluble on expression in E. coli
1 | GCPHDCVFCNQNTITGEESKVNGDYVKSTVEDYLDTIPNKSATIEISFFGGTFTAINIEKQKELLSVARHYKEIGKIKYIRLSTRPDYIDDEILTNLKNYSVDIIELGVQSLDSEVLLKSGRGHTKEDVVKASRLIKKYGFTLGHQIMLGLPGDNAEKDIETTRKVICMKPNICRIYPALVIKDTAMEKMYNRGIYKPYDIEECVEI | not soluble
2 | MTSAPMSNPSSTSSVVTAAMLAIGDELLSGRTKDKNIGHLADVLTMSGIDLKEVRIVADEEESIVEALNALRSRYDYVFTSGGIGPTHDDITADAISAAFGLPCEHDAEALRLLGDMYRVREMEFTEARKRMARMPKGAAHIANPVSVAPGFVIGNVYVMAGVPQVFQAMLDNVMPTLRTGAKVMSQAVRSPYGEGDIGTPLTAIQKAHPETSIGSYPKYDGQRFSTEIVVRARDAGLLKAATEAVAAMIEAIGQEKQLAASKGDATA | not soluble
3 | MGLEKTVKEKLSFEGVGIHTGEYSKLIIHPEKEGTGIRFFKNGVYIPARHEFVVHTNHSTDLGFKGQRIKTVEHILSVLHLLEITNVTIEVIGNEIPILDGSGWEFYEAIRKNILNQNREIDYFVVEEPIIVEDEGRLIKAEPSDTLEVTYEGEFKNFLGRQKFTFVEGNEEEIVLARTFCFDWEIEHIKKVGLGKGGSLKNTLVLGKDKVYNPEGLRYENEPVRHKVFDLIGDLYLLGSPVKGKFYSFRGGHSLNVKLVKELAKKQKLTRDLPHLPSVQALLEHHHHHH | soluble
4 | GPQDPDKRRKTLVIIEKTYSLLLDVEDYERRYLLSLEEERPALMDDRKHKICSMYDNLRGKLPGQERPSDDHFVQIMCIRKGKRMVARILPFLSTEQAADILMTTARNLPFLIKKDAQDEVLPCLLSPFSLLLYHLPSVSITSLLRQLMNLPQSAATPALSNPHLTAVLQNKFGLSLLLILLSRGEDLQSSDPATESTQNNQWTEVMFMATRELLRIPQAALAKPISIPTNLVSLFSRYVDRQKLNLLETKLQLVQ | soluble
5 | EDSKALDEVVVVAFGTQKKESMISSIETIKPAELKVPSSNLTTALAGRMSGVIAYQRSGEPGKDNADFFIRGVTTFGYKKDPLILIDGIETTTTELARLQPDDIAAFSILKDATATALYGARGANGVIQVATKEGKEGA | not soluble
6 | MKVLEYRFAIAPMFHFIANKSMEAGLHVCDGHAKQTVQLFMNDAVSEKGKKRIGAIQYEGSNDYTAKEPCMVNWRFERALLPDGLKQDLEAITAFRRDQNEGTAINPNAQSIAFKFEALTDAAKETIEAITAVLQKHARC | not soluble
7 | MRLFAIVLLCLVLATCASHIPSARVTHPASAGLPGLQGFQLMPPEQAVDALPYRNRYPLINAELRQGLAAHGYHESATPQFRVYYWLALRDAPLEFRPDLPPTSGMGPYLAIHRLRDETGTLRVRLVDLEERVLWEGMVSTGLSPARANPEQLELAVGALLRQLPRAR | not soluble
8 | MSLHGKLIQFHKFGNPKDVLQVEYKNIEPLKDNEVFVRMLVRPINPSDLIPITGAYAHRIPLPNIPGYEGVGIVENVGAFVSRELIGKRVLPLRGEGTWQEYVKTSADFVVPIPDSIDDFTAAQMYINPLTAWVTCTETLNLQRNDVLLVNACGSAIGHLFAQLSQILNFRLIAVTRNNKHTEELLRLGAAYVIDTSTAPLYETVMELTNGIGADAAIDSIGGPDGNELAFSLRPNGHFLTIGLLSGIQVNWAEIVTKAKVHANIFHLRHWNDEVSPYKWQETFRHLIRLVENEQLRFMKVHSTYELADVKAAVDVVQSAEKTKGKVFLTSYEGHHHHHH | soluble
9 | MVITKHFAIHGKSYRRKLIKYILNPEKTNNLALVSDYGMKNFLDFPSYEEMVQMYHENFISNDTLYDFRHDRMEENQRKIHAHHIIQSFSPEDHITPEQINRIGYETVKELTGGKFRFIVATHVDKDHLHNHIIINSVDSNSDKKLKWDYKVERNLRMISDRFSKIAGAKIIENRYSHQRYEVYRKTNHKYELKQRLYFLMEHSRDFEDFKKNAPLLHVEMDFRHKHATFFITDSTMKQVVRGKQLNRKQPYTEEFFKNYFAKREIESLMEFLLLKVENMDDLLQKAKLFGLTINPKQKHVSFQFAGVEVKETELDQKNLYDVEFFQDYFKNRKDWQAPETEDFVQLYQEEKLSKEKELPSDEKFWESYQEFKSNRDAVHEFEVELSLNQIEKVVDDGIYVKVKFGIRQEGLIFVPNMQLDMEEDKVKVFIRETSSYYVYHKDAAEKNCYMKGRTLIRQFSYENQTIPLRRKATVDMIKEKIAEVDALIELEVENQSYVTIKDELVHELAASELRINELQERMSTLNQVAEYLLASVESKQEMKLNLSKLNITENISANIVEKKLKSLGNQLELERGRYEKMVVRLDKFINRLNTGLSKGDGIDFQK | not soluble
10 | GHDEIGQLATTFNHLTRELEDAQAMTEGERRKLASVIAYMTDGVIATNRNGAIILLNSPALELLNVSRETALEMPITSLLGLQENYTFEDLVEQQDSMLLEIERDDELTVLRVNFSVIQREH | not soluble
11 | MNTMNSVLKYKELALYGGSFDPLHKAHLAIIEQTLELLPSAKLIVLPAYQNPFKKPCFLDAQTRFKELERALKGIDRVLLSDFEIKQERAVPTIESVLHFQKLYHPQTLYLVIGADCLRHLSSWTNAKELLKRVELVVFERIGYEEIQFKGHYHPLKGIDAPISSSAIRASLGV | not soluble
12 | MSISGLFILDLKGNVVISRNYRGDVDMSCIEKFMPLLVEKEDEGSASPVLVHQGISYTYIKYMNVYLVTISKKNTNVILVLSALYKIVEVFCEYFKTLEEEAVRDNFVIIYELFDEMLDFGYPQTTESKILQEFITQQGNRLETVRPPMAVTNAVSWRSEGIKYRKNEVFLDVIESVNMLANAQGTVLRSEIVGSIRFRVVLSGMPELRLGLNDKVFFQQSGASSRRGNSGKGVELEDIKFHQCVRLSRFDSERTISFIPPDGEFELMSYRLTTQVKPLIWVEAAVERHAHSRVEYMVKAKSQFKRQSVANHVEVIIPVPSDVSAPKFKTGAGTAKYVPELNAIVWSIRSFPGGREYIMRSSFMLPSIGSEELEGRPPINVKFEIPYYTTSGLQVRYLKIIEKSGYQALPWVRYVTQNGDYQMRMT | not soluble
13 | GSKCKCSRKGPKIRYSDVKKLEMKPKYPHCEEKMVIITTKSVSRYRGQEHCLHPKLQSTKRFIKWYNAWNEKRRVYEE | soluble
14 | MNYMPGTASLIEDIDKKHLVLLRDGRTLIGILRSIDQFANLVLHQTVERIHVGKKFGDIPRGIFVVRGENVVLLGEVDLDKECDQILQRVSIEEILEEQRTEQQAKQESERLKLQAVKERGLSIPKADTLDDF | soluble
15 | MGSDKIHHHHHHMKLILSVESVRFPLTGIGRYTYELASRLQHAEQISDLRLFAGSRFLPELLKPSDQSDAVHGLKRFVQKNALAVEAYRRLMPLLRKRALRGHEDFIYHSTNFYLPPFAGPRVATFHDLSPFTWAHCHTPQIARYLQKELKLTLERADALITVSHHTRKELADYFGWPLERIHAVPLASSPQFHPRTPQALRETLARHGLELGGYSLFVGTIEPRKNIETLLNAYGRLPLALRQRWPLILSGYHGWRSEAIHSRIAQAQQEGWARYLGFVASEDLPLLFAGARLFTFPSHYEGFGLPVLEAMSSGVPVVCSNSSSLPEVAGSAALMCAPDDVEGLTGLLHQGLEDEAWRSAAVQRGLLHAGGFSWERCAQGTVEVYKSVKER | not soluble
16 | GSHMASMTGGQQMGRGSEFKKYLETNGIKPKQFHKKELIFNQWDPQEYCIFLYDGITKLTSISENGTIMNLQYYKGAFVIMSGFIDTETSVGYYNLEVISEQATAYVIKINELKELLSKNLTHFFYVFQTLQKQVSYSLAKFNDFSINGKLGSICGQLLILTYVYGKETPDGIKITLDNLTMQELGYSSGIAHSSAVSRIISKLKQEKVIVYKNSCFYVQNLDYLKRYAPKLDEWFYLACPATWGKLN | soluble
17 | MKIDLNCDLGEGFGVWQMGDDAAMMQIATSVNIACGFHAGDPDIMHATVKLAKQNGVAIGAHPGFRDLHGFGRRPVPGITAAEIENLVAYQIGALQAVAALAGHKVTHVKAHGALSNVACEDDMTARAIASAIKAVDPSLVFVVLANSKLMLAGEAAGLPLAHEVFADRAYEDDGNLVSRKKPGAVLHDPNEIAERVLRMAQDGAVVSVTGKVIKMRTDTVCIHGDTKGAVEIARGVRRKLEASGITVAPFAGTLEHHHHHH | soluble
18 | MMLENKSINELYSIKLIEEADTKRLIKFMNKYMNSKHEFEMSKRIFLSDQILNQECYNDINIRSSIYNFYEEYIVMEKEGKIAALIALDINRNNLSKVLNLNLIICEEGEMSRLRDMFIFATEILPEYSIVEPTKIRTYIRENGIFTEYWKNKLMEAGFSHEVTRENEVGNGVALTTMIIKMK | not soluble
19 | MSLNLVSEQLLAANGLKHQDLFAILGQLAERRLDYGDLYFQSSYHESWVLEDRIIKDGSYNIDQGVGVRAISGEKTGFAYADQISLLALEQSAQAARTIVRDSGDGKVQTLGAVEHSPLYTSVDPLQSMSREEKLDILRRVDKVAREADKRVQEVTASLSGVYELILVAATDGTLAADVRPLVRLSVSVLVEEDGKRERGASGGGGRFGYEFFLADLDGEVRADAWAKEAVRMALVNLSAVAAPAGTMPVVLGAGWPGVLLHEAVGHGLEGDFNRRGTSVFSGQVGELVASELCTVVDDGTMVDRRGSVAIDDEGTPGQYNVLIENGILKGYMQDKLNARLMGMTPTGNGRRESYAHLPMPRMTNTYMLPGKSTPQEIIESVEYGIYAPNFGGGQVDITSGKFVFSTSEAYLIENGKVTKPVKGATLIGSGIETMQQISMVGNDLKLDNGVGVCGKEGQSLPVGVGQPTLKVDNLTVGGTA | soluble
20 | QIVDCWETWSRCTKWSQGGTGTLWKSCNDRCKELGRKRGQCEEKPSRCPLSKKAWTCICY | soluble
21 | AHHHHHHGSKVEGFVASLRNAETIDDLFAILKKKGAPVVEFDGMKKLVIVEGDFEGEKFWTEINGAKANLALGDAMLNAASVPFKCKRDFTGGNLILLDFDSIESNEFLIAYVSEKSGVYFHVKAEEVKEITKEEYDELKDRMPEFKAKSYSEEEMEGMGAFFG | soluble
22 | MSLALRFITAEEAAEFVHHNDNVGFSGFTPAGNPKVVPAAIAKRAIAAHEKGNPFKIGMFTGASTGARLDGVLAQADAVKFRTPYQSNKDLRNLINNGSTSYFDLHLSTLAQDLRYGFYGKVDVAIIEVADVTEDGKILPTTGVGILPTICRLADRIIVELNDKHPKEIMGMHDLCEPLDPPARRELPVYTPSDRIGKPYVQVDPAKIVGVVRTSEPNDESDFAPLDPVTQAIGDNVAAFLVSEMKAGRIPKDFLPLQSGVGNVANAVLGALGDNPDIPAFNMYTEVIQDAVIALMKKGRIKFASGCSLSVSRSVIQDIYANLDFFKDKILLRPQEYSNNPEIVRRLGVITINTALEADIFGNINSTHVSGTRMMNGIGGSGDFTRNSYVSIFTTPSVMKDGKISSFVPMVAHHDHSEHSVKVIISEWGVADLRGKNPRERAHEIIDKCVHPDYRPLLRQYLELGVKGQTPQNLDCCFAFHQELAKSGDMRNVRWEDYMKEGHHHHHH | soluble
23 | MSQLYAQEPRLGIPDSMLRYGTVVTMEQGDTVYDIALPQVWVKHKKYKSRQLTPQERQELWRLIRDVKRTLPYAKMIAATLIETYEYMETMPDEKSRQKHLKRMEKEMKQQYMPEMKRLTLRQGKLLIKLIDRQCAQSSYQLLKAFLGGWKAGWWNLFARFYGASLKTRYEPDKNPEDALTERIVLLVEEKRI | not soluble
24 | SDLFTDGDIFQDIVDAACKRRVPVYIILDEGGVKYFLEMCQGLELADFRIRNIRVRSVTGIGFYMPMGKIKGTLSSKFLMVDGDKVATGSFSFTWSSSYVDRNLLLLLTGQNMEPFDIEFRELYAISEEVNLHQHLGLAGRIGLNYSSTVARKLINPKYALVAGTRRPPGEMMRWAARQQREAGGNVEGQEEGSGGGESARRLESFLNDLVTVEQILPTVEPISPRLQRPTNGRPVSHAHTDAKHRSREALPQNGKGEAANGEATPAKEGKRFSSRLFSRRVKRPAVPSSMASSPSTETFADVEFPLGKRHNEGSNANISGKGITKASNCVIS | soluble
